Measurements from patent publication US20250019430A1 (published 2025).

T1: RETN-flag-His (human, UniProt Q9HD89 19-108)
T1 chain: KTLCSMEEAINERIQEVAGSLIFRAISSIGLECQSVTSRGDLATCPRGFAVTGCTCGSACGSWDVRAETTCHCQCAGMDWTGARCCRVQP

B1: 5A2 (antibody, V domains shown)
VH: QVQLVQSGAEGRKPGSSVKVSCKVSGDTFSSYAISWVRQAPGQGLEWMGGIIPIFGAADYAQKFKGRVTISADESTSTAYMELSSLRSEDTAVYYCAKGPDYYGSFDPWGQGTLITVSS
VL: DIQMTQSPSFLSASVGDRVTITCRASQYIGTYLAWYQQQPGKAPKLLIYGASILQNGVPSRFSGSASGTEFTLTISSLQPEDFATYYCQQADSFPLTFGGGTKVDIKR
B2: RETN-5A2 (antibody, V domains shown)
VH: B1 VH
VL: B1 VL
B3: 5A2-LS-2E10 (antibody, V domains shown)
VH: B1 VH
VL: DIQMTQSPSSLSASVGDRVTITCRTSQTITNYLNWYQQKPGRAPKLLIFDASNLETGVPSRFSGSGSGTDFTLTISSLQPEDFATYFCQQSYNPGYTFGQGTKLEIKR
B4: 5A2-LS-1F11 (antibody, V domains shown)
VH: B1 VH
VL: not shown
B5: 5A2-LS-2B02 (antibody, V domains shown)
VH: B1 VH
VL: DIQMTQSPGTLSLSAGERATLSCRASQSVRGSYLAWYQQKPGQAPRLLIYGTSSRAPGIPDRFSGSGSGTDFTLTISSLEPEDFAVYYCQQRGDWLYTFGQGTKVEIKR
B6: 5A2-LS-2G03 (antibody, V domains shown)
VH: B1 VH
VL: DIQMTQSPSSLSASVGDRVTITCQASQHVSSYLNWYQQKPGKAPKLLIYAASNLQSGVPSRFSGSGSGTDFTLTISSLQPDDFATYYCQQYDSYSSVYTFGPGTKLDIKR
B7: 5A2-LS-2D07 (antibody, V domains shown)
VH: B1 VH
VL: QSALTQPASVSGSPGQSVTISCTGTSSDIGRYNRVSWYQHHPGKAPKLIIYDVSNRPSGVSNRFSGSKSGNTASLTISGLQAGDESDYYCSAYTRSSTWVFGGGTKLTVLR
B8: 5A2-LS-2H10 (antibody, V domains shown)
VH: B1 VH
VL: NFMLTQPASVSGSPGQSITISCTGSSSDVGGYNYVTWYQQHPGKAPQLIIYDVTKRPSGVSNRFSGSKSGNSASLTISGLQAEDEADYYCSSYSSSTFYVFGTGTKVTVLR
B9: 5A2-LS-2F11 (antibody, V domains shown)
VH: B1 VH
VL: DIQMTQSPSSLSASVGDRVTITCRASQSIGTYLNWYQQKPGKAPKLLIYDASSLEDGVPSRFSGSGSGTDFTLTISSLQPEDSATYYCQQSYTMPLYTFGQGTKLEIKR

Each binder was assayed against RETN-C-His (#S0995) (assay: Octet BLI).
B1 was tested, and the Kd was 2140 pM.

Biological target: T1, RETN-flag-His
Test: Octet BLI
With B2 the Kd was 2100 pM.

The binders below were run against RETN-His (#S0995) (assay: Octet BLI).
For B3, the Kd was 419 pM. Work on B4 yielded a Kd of 958 pM. Work on B5 yielded a Kd of 452 pM. B6 was tested, and the Kd was 311 pM. With B7 the Kd was 490 pM. In the case of B1, the Kd is reported as 1170 pM. B8 was tested, and the Kd was 538 pM. B9 was tested, and the Kd was 443 pM.
